Assay results: US20260226152A1 (GlaxoSmithKline, published 2026)
Substitutions are numbered along the chain they refer to.

T1: Human IL-23 (human, UniProt Q9NPF7 20-189; P29460 23-328)
T1 sequence 1: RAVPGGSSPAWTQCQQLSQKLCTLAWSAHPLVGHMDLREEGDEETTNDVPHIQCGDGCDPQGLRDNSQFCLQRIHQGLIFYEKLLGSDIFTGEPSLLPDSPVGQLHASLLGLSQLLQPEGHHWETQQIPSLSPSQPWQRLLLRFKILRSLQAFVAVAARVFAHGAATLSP
T1 sequence 2: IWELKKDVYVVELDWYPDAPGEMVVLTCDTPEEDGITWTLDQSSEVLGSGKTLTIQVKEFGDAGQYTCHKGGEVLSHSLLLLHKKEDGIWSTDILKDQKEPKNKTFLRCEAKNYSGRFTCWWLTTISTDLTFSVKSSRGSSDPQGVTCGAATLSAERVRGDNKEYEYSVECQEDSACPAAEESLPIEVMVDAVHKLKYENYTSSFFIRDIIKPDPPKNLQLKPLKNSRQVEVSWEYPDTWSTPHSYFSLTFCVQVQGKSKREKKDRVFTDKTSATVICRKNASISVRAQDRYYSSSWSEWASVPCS

T2: Human IL-18 (human, UniProt Q14116 37-193)
T2 construct: Recombinant, made in-house; In the BLI assay the loaded cytokine was captured on anti-Penta His sensors, so a His tag is implied but not described; also called recombinant human IL-18; interleukin 18
T2 sequence: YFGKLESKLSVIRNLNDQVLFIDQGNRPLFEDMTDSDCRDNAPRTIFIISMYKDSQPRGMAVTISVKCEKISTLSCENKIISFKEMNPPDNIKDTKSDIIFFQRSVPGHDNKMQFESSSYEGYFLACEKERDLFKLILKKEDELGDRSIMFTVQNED

B1: Heterodimeric bsAb 1 (bispecific antibody, human IgG1, kappa)
heavy 1: QVQLVQSGAEVKKPGASVKVSCKVSGEISTGYYFHWVRQAPGKGLEWMGRIDPEDDSTKYAERFKDRVTMTEDTSTDTAYMELSSLRSEDTAVYYCTTWRIYRDSSGRPFYVMDAWGQGTLVTVSSASTKGPSVFPLAPSSKSTSGGTAALGCEVTDYFPEPVTVSWNSGALTSGVHTFPAVLESSGLYSLSSVVTVPSSSLGTQTYICNVNHKPSNTKVDKKVEPKSCDKTHTCPPCPAPELAGAPSVFLFPPKPKDTLMISRTPEVTCVVVDVSHEDPEVKFNWYVDGVEVHNAKTKPREEQYNSTYRVVSVLTVLHQDWLNGKEYKCKVSNKALPAPIEKTISKAKGQPREPQVYVYPPSRDELTKNQVSLTCLVKGFYPSDIAVEWESNGQPENNYKTTPPVLDSDGSFALVSKLTVDKSRWQQGNVFSCSVMHEALHNHYTQKSLSLSPGK
light 1: DIQMTQSPSSVSASVGDRVTITCLASEDIYTYLTWYQQKPGKAPKLLIYGANKLQDGVPSRFSGSGSGTDYTLTISSLQPEDFATYYCLQGSKFPLTFGQGTKLEIKRTVAAPSVFIFPPSDERLKSGTASVVCLLNNFYPREAKVQWKVDNALQSGNSQESVTEQDSKDSTYSLSSRLTLSKADYEKHKVYACEVTHQGLSSPVTKSFNRGEC
heavy 2: QVQLVQSGAEVKKPGSSVKVSCKASGYTFTDQTIHWMRQAPGQGLEWIGYIYPRDDSPKYNENFKGKVTITADKSTSTAYMELSSLRSEDTAVYYCAIPDRSGYAWFIYWGQGTLVTVSSASTKGPSVFPLAPSSKSTSGGTAALGCRVKDYFPEPVTVSWNSGALTSGVHTFPAVLQSSGLYSLSSVVTVPSSSLGTQTYICNVNHKPSNTKVDKKVEPKSCDKTHTCPPCPAPELAGAPSVFLFPPKPKDTLMISRTPEVTCVVVDVSHEDPEVKFNWYVDGVEVHNAKTKPREEQYNSTYRVVSVLTVLHQDWLNGKEYKCKVSNKALPAPIEKTISKAKGQPREPQVYVLPPSRDELTKNQVSLLCLVKGFYPSDIAVEWESNGQPENNYLTWPPVLDSDGSFFLYSKLTVDKSRWQQGNVFSCSVMHEALHNHYTQKSLSLSPGK
light 2: DIQMTQSPSSLSASVGDRVTITCKASRDVAIAVAWYQQKPGKVPKLLIYWASTRHTGVPSRFSGSGSRTDFTLTISSLQPEDVADYFCHQYSSYPFTFGSGTKLEIKRTVAAPSVFIFPPSDEELKSGTASVECLLNNFYPREAKVQWKVDNALQSGNSQESVTEQDSKDSTYSLSSTLTLSKADYEKHKVYACEVTHQGLSSPVTKSFNRGEC
notes: Het-mAb format: anti-IL-18 mAb on ZA and anti-IL-23 mAb (risankizumab) on ZB, with Fc heterodimerisation and silencing mutations; Expressed transiently in HEK293 6E cells
B2: Heterodimeric bsAb 2 (bispecific antibody, human IgG1, kappa)
heavy 1: QVQLVQSGAEVKKPGSSVKVSCKASGYTFTDQTIHWMRQAPGQGLEWIGYIYPRDDSPKYNENFKGKVTITADKSTSTAYMELSSLRSEDTAVYYCAIPDRSGYAWFIYWGQGTLVTVSSASTKGPSVFPLAPSSKSTSGGTAALGCRVKDYFPEPVTVSWNSGALTSGVHTFPAVLQSSGLYSLSSVVTVPSSSLGTQTYICNVNHKPSNTKVDKKVEPKSCDKTHTCPPCP
light 1: B1 light 2
heavy 2: B1 heavy 1 with Y360L, T375L, K401L, T403W, A414F, V416Y
light 2: B1 light 1
notes: Het-mAb format: anti-IL-23 mAb (risankizumab) on ZA and anti-IL-18 mAb on ZB, with Fc heterodimerisation and silencing mutations

Legend:
Human IL-23 [1] = molecular target: T1, Human IL-23; assay: cell-based or functional assay
Human IL-18 [2] = molecular target: T2, Human IL-18; assay: SPR (Biacore), antibody captured on Protein A/G, cytokine as analyte, 25 C, 1:1 fit, n=1
Protocol: (§1) A heterodimeric bsAb, alongside anti-IL-18 and anti-IL-23 common light chain control bispecific antibodies, were assessed for binding to human and cyno IL-18 and IL-23, using the Biacore 8K and T200 (Cytiva) surface plasmon resonance (SPR) instruments. All reagents were generated recombinantly in-house with the exception of Rhesus monkey IL-18 which was purchased from R&D systems (Cat #2548-RM-025/CF). Rhesus and cynomolgus monkey amino acid sequences are identical. Therefore, the protein will be referred to as cynomolgus monkey IL-18.
(§2) Heterodimeric bsAb, anti-IL-18 and anti-IL-23 common light chain bispecific control molecules were assessed for binding to recombinant human and cynomolgus monkey IL-18 and IL-23 using the Biacore 8K and T200 (Cytiva) SPR instruments. The antibodies were captured onto Protein A/G, which was immobilised onto flow cell 2 of 8 channels (Biacore 8K) or flow cells 2, 3 and 4 (Biacore T200) of a CM5 series S sensor chip by primary amine coupling. The IL-18 or IL-23 analytes were passed over the captured antibodies at varying concentrations between 0.04-25 nM. The association phase was for 240 seconds at 30 μl/min, followed by a dissociation step of up to 1200 seconds. A 0 nM (i.e., buffer alone) injection was used to double reference the binding curves. Regeneration of the chip surface between cycles was carried out using 50 mM NaOH. The assay was run at 25° C. in HBS-EP⁺ buffer. Biacore 8K control software version 3.0 was used to run the experiment. Data was analysed using Biacore 8K Insight evaluation software version 3.0. Biacore T200 control software version 1.0 was used to run the experiment. Data was analysed using Biacore T200 evaluation software version 2.0. Affinities and kinetics were determined using the 1:1 kinetic fit inherent to the software where possible. All affinity values generated using both instruments were combined to determine geometric mean values.

Human IL-23 [3] = molecular target: T1, Human IL-23; assay: as above
Protocol: as §1, §2

Human IL-18 [4] = molecular target: T2, Human IL-18; assay: cell-based or functional assay
Human IL-23 [5] = molecular target: T1, Human IL-23; assay: cell-based or functional assay; remark: listed apart in the source
Human IL-18 [6] = molecular target: T2, Human IL-18; assay: cell-based or functional assay; remark: listed apart in the source

Binder	IC50 Heterodimeric bsAbs (% of Parent IL-23 control 2), IL-23-induced pSTAT3 in T cells of human whole blood (Human IL-23 [1])	IC50 Heterodimeric bsAbs (pM), inhibition of IL-23-induced pSTAT3 in CD3+CD161+ T cells of human whole blood (Human IL-23 [1]) [pM]	Kd (Human IL-18 [2]) [nM]	Kd (Human IL-23 [3]) [nM]	IC50 Heterodimeric bsAbs (% of Parent IL-18 control 3), LPS + IL12-induced IFN-γ in human whole blood (Human IL-18 [4])	IC50 Heterodimeric bsAbs (nM), inhibition of LPS + IL12-induced IFN-γ in human whole blood (Human IL-18 [4]) [nM]	IC50 Heterodimeric bsAb (% of Parent IL-23 control 2), IL-23-induced mouse IL-17A in mouse splenocytes (Human IL-23 [5])	IC50 Heterodimeric bsAb (pM), inhibition of human IL-23-induced mouse IL-17A secretion in mouse splenocytes (Human IL-23 [5]) [pM]	IC50 (pM, Mean), neutralisation of human IL-18-induced IFNγ secretion by KG-1 cells (Human IL-18 [6]) [pM]	pIC50 (GeoMean), neutralisation of human IL-18-induced IFNγ secretion by KG-1 cells (Human IL-18 [6])
B1	218 % of Parent	615	< 0.01	0.374	191 % of Parent	16	254 % of Parent	153	133	9.88
B2	249 % of Parent	711	< 0.01	0.158	240 % of Parent	18.2	274 % of Parent	147	77.6	10.1
